Results: US20120034160A1 (AbbVie / Abbott, published 2012)

T1: Recombinant Human IL-17 (human, UniProt Q16552 20-155, limits assumed)
T1 construct: bought reagent
T1 sequence (looked up): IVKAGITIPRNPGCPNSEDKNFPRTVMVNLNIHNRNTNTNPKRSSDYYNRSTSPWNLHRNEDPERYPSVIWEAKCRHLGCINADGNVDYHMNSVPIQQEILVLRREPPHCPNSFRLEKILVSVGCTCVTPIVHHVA


Legend:
Recombinant Human IL-17 = target: T1, Recombinant Human IL-17; assay: Biacore SPR; C-terminal VD
How it was run: (§1)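 Reported constants are kon (M⁻¹s⁻¹), koff (s⁻¹) and KD, calculated as koff/kon from a global 1:1 Langmuir fit. Antigen at 10−200 nM was passed over antibody or DVD-Ig captured on an anti-mouse IgG Fcγ surface in HBS-EP pH 7.4 at 25° C.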

Recombinant Human IL-1β = target: T2, Recombinant Human IL-1β (human, UniProt P01584 117-269); assay: Biacore SPR; N-terminal VD
T2 construct: bought reagent; also called IL-1B
How it was run: as §1

| Kd (Recombinant Human IL-17) [pM] | koff (Recombinant Human IL-17) [s⁻¹] | kon (Recombinant Human IL-17) [M⁻¹ s⁻¹] | Kd (Recombinant Human IL-1β) [nM] | koff (Recombinant Human IL-1β) [s⁻¹] | kon (Recombinant Human IL-1β) [M⁻¹ s⁻¹] | Binder |
| --- | --- | --- | --- | --- | --- | --- |
| ≤ 0.034 | < 1e-06 | 230000 | 0.075 | 0.00049 | 6.6e+06 | DVD1623 (bispecific antibody, human IgG1, kappa, DVD-Ig, outer AB270, inner AB273, linker set 3; V1 wt hIgG1, V2 kappa; also called DVD1623H; DVD1623L) heavy: not shown light: DTQVTQSPSSLSASVGDRVTITCITSTDIDVDMNWYQQKPGKPPKLLISQGNTLRPGVPSRFSSSGSGTDFTFTISSLQPEDFATYYCLQSDNLPLTFGQGTKLEIKRTVAAPDIQMTQSPSSLSASVGDRVTITCRASSGIISYIDWFQQKPGKAPKRLIYATFDLASGVPSRFSGSGSGTDYTLTISSLQPEDFATYYCRQVGSYPETFGQGTKLEIKRTVAAPSVFIFPPSDEQLKSGTASVVCLLNNFYPREAKVQWKVDNALQSGNSQESVTEQDSKDSTYSLSSTLTLSKADYEKHKVYACEVTHQGLSSPVTKSFNRGEC |
| ≤ 0.27 | < 1e-06 | 310000 | 0.069 | 0.00048 | 6.9e+06 | DVD1603 (bispecific antibody, human IgG1, kappa, DVD-Ig, outer AB270, inner AB274, linker set 2; V1 wt hIgG1, V2 kappa; also called DVD1603H; DVD1603L) heavy: not shown light: DTQVTQSPSSLSASVGDRVTITCITSTDIDVDMNWYQQKPGKPPKLLISQGNTLRPGVPSRFSSSGSGTDFTFTISSLQPEDFATYYCLQSDNLPLTFGQGTKLEIKRTVAAPSVFIFPPEIVLTQSPDFQSVTPKEKVTITCRASQDIGSELHWYQQKPDQPPKLLIKYASHSTSGVPSRFSGSGSGTDFTLTINGLEAEDAGTYYCHQTDSLPYTFGPGTKVDIKRTVAAPSVFIFPPSDEQLKSGTASVVCLLNNFYPREAKVQWKVDNALQSGNSQESVTEQDSKDSTYSLSSTLTLSKADYEKHKVYACEVTHQGLSSPVTKSFNRGEC |
| ≤ 0.15 | < 1e-06 | 360000 | 0.059 | 0.00046 | 7.8e+06 | DVD1613 (bispecific antibody, human IgG1, kappa, DVD-Ig, outer AB270, inner AB275, linker set 2; V1 wt hIgG1, V2 kappa; also called DVD1613H; DVD1613L) heavy: not shown light: DTQVTQSPSSLSASVGDRVTITCITSTDIDVDMNWYQQKPGKPPKLLISQGNTLRPGVPSRFSSSGSGTDFTFTISSLQPEDFATYYCLQSDNLPLTFGQGTKLEIKRTVAAPSVFIFPPEIVLTQSPDFQSVTPKEKVTITCRASQNIGSELHWYQQKPDQSPKLLIKYASHSISGVPSRFSGSGSGTDFTLTINGLEAEDAATYYCHQSDTLPHTFGQGTKVDIKRTVAAPSVFIFPPSDEQLKSGTASVVCLLNNFYPREAKVQWKVDNALQSGNSQESVTEQDSKDSTYSLSSTLTLSKADYEKHKVYACEVTHQGLSSPVTKSFNRGEC |
| ≤ 0.074 | < 1e-06 | 120000 | 0.021 | 4.1e-05 | 2e+06 | DVD1599 (bispecific antibody, human IgG1, kappa, V1 wt hIgG1, V2 kappa; also called DVD1599H; DVD1599L) heavy: not shown light: DIQMTQSPSSLSASVGDRVTITCRASGNIHNYLTWYQQTPGKAPKLLIYNAKTLADGVPSRFSGSGSGTDYTFTISSLQPEDIATYYCQHFWSIPYTFGQGTKLQITRTVAAPSVFIFPPEIVLTQSPDFQSVTPKEKVTITCRASQDIGSELHWYQQKPDQPPKLLIKYASHSTSGVPSRFSGSGSGTDFTLTINGLEAEDAGTYYCHQTDSLPYTFGPGTKVDIKRTVAAPSVFIFPPSDEQLKSGTASVVCLLNNFYPREAKVQWKVDNALQSGNSQESVTEQDSKDSTYSLSSTLTLSKADYEKHKVYACEVTHQGLSSPVTKSFNRGEC |
| ≤ 0.84 | < 1e-06 | 89000 | 0.022 | 4.6e-05 | 2.1e+06 | DVD1609 (bispecific antibody, human IgG1, kappa, V1 wt hIgG1, V2 kappa; also called DVD1609H; DVD1609L) heavy: not shown light: DIQMTQSPSSLSASVGDRVTITCRASGNIHNYLTWYQQTPGKAPKLLIYNAKTLADGVPSRFSGSGSGTDYTFTISSLQPEDIATYYCQHFWSIPYTFGQGTKLQITRTVAAPSVFIFPPEIVLTQSPDFQSVTPKEKVTITCRASQNIGSELHWYQQKPDQSPKLLIKYASHSISGVPSRFSGSGSGTDFTLTINGLEAEDAATYYCHQSDTLPHTFGQGTKVDIKRTVAAPSVFIFPPSDEQLKSGTASVVCLLNNFYPREAKVQWKVDNALQSGNSQESVTEQDSKDSTYSLSSTLTLSKADYEKHKVYACEVTHQGLSSPVTKSFNRGEC |
| ≤ 0.12 | < 1e-06 | 120000 | 0.016 | 2e-05 | 1.2e+06 | DVD1601 (bispecific antibody, human IgG1, kappa, V1 wt hIgG1, V2 kappa; also called DVD1601H; DVD1601L) heavy: not shown light: DIQMTQSPSSLSASVGDRVTITCRASGNIHNYLTWYQQTPGKAPKLLIYNAKTLADGVPSRFSGSGSGTDYTFTISSLQPEDIATYYCQHFWSIPYTFGQGTKLQITRTVAAPSVFIFPPEIVLTQSPDFQSVTPKEKVTITCRASQDIGSELHWYQQKPDQPPKLLIKYASHSTSGVPSRFSGSGSGTDFTLTINGLEAEDAGTYYCHQTDSLPYTFGPGTKVDIKRTVAAPSVFIFPPSDEQLKSGTASVVCLLNNFYPREAKVQWKVDNALQSGNSQESVTEQDSKDSTYSLSSTLTLSKADYEKHKVYACEVTHQGLSSPVTKSFNRGEC |
| 15 | 6e-05 | 4.1e+06 | 0.42 | 0.00013 | 310000 | DVD1611 (bispecific antibody, human IgG1, kappa, V1 wt hIgG1, V2 kappa; also called DVD1611H; DVD1611L) heavy: not shown light: DIQMTQSPSSLSASVGDRVTITCRASGNIHNYLTWYQQTPGKAPKLLIYNAKTLADGVPSRFSGSGSGTDYTFTISSLQPEDIATYYCQHFWSIPYTFGQGTKLQITRTVAAPSVFIFPPEIVLTQSPDFQSVTPKEKVTITCRASQNIGSELHWYQQKPDQSPKLLIKYASHSISGVPSRFSGSGSGTDFTLTINGLEAEDAATYYCHQSDTLPHTFGQGTKVDIKRTVAAPSVFIFPPSDEQLKSGTASVVCLLNNFYPREAKVQWKVDNALQSGNSQESVTEQDSKDSTYSLSSTLTLSKADYEKHKVYACEVTHQGLSSPVTKSFNRGEC |
| 4.3 | 6e-06 | 1.4e+06 | 0.055 | 0.00041 | 7.4e+06 | DVD1595 (bispecific antibody, human IgG1, kappa, DVD-Ig, outer AB271, inner AB273, linker set 2; V1 wt hIgG1, V2 kappa; also called DVD1595H; DVD1595L) heavy: not shown light: DTVVTQSPAFLSVTPGEKVTITCITSTDIDVDMNWYQQKPDQPPKLLISQGNTLRPGVPSRFSSSGSGTDFTFTISSLEAEDAATYYCLQSDNLPLTFGQGTKLEIKRTVAAPSVFIFPPDIQMTQSPSSLSASVGDRVTITCRASSGIISYIDWFQQKPGKAPKRLIYATFDLASGVPSRFSGSGSGTDYTLTISSLQPEDFATYYCRQVGSYPETFGQGTKLEIKRTVAAPSVFIFPPSDEQLKSGTASVVCLLNNFYPREAKVQWKVDNALQSGNSQESVTEQDSKDSTYSLSSTLTLSKADYEKHKVYACEVTHQGLSSPVTKSFNRGEC |
| ≤ 0.068 | < 1e-06 | 410000 | 0.059 | 0.0005 | 8.6e+06 | DVD1605 (bispecific antibody, human IgG1, kappa, DVD-Ig, outer AB271, inner AB274, linker set 2; V1 wt hIgG1, V2 kappa; also called DVD1605H; DVD1605L) heavy: not shown light: DTVVTQSPAFLSVTPGEKVTITCITSTDIDVDMNWYQQKPDQPPKLLISQGNTLRPGVPSRFSSSGSGTDFTFTISSLEAEDAATYYCLQSDNLPLTFGQGTKLEIKRTVAAPSVFIFPPEIVLTQSPDFQSVTPKEKVTITCRASQDIGSELHWYQQKPDQPPKLLIKYASHSTSGVPSRFSGSGSGTDFTLTINGLEAEDAGTYYCHQTDSLPYTFGPGTKVDIKRTVAAPSVFIFPPSDEQLKSGTASVVCLLNNFYPREAKVQWKVDNALQSGNSQESVTEQDSKDSTYSLSSTLTLSKADYEKHKVYACEVTHQGLSSPVTKSFNRGEC |
| 150 | 6e-05 | 390000 | 0.055 | 0.00055 | 9.9e+06 | DVD1615 (bispecific antibody, human IgG1, kappa, DVD-Ig, outer AB271, inner AB275, linker set 2; V1 wt hIgG1, V2 kappa; also called DVD1615H; DVD1615L) heavy: not shown light: DTVVTQSPAFLSVTPGEKVTITCITSTDIDVDMNWYQQKPDQPPKLLISQGNTLRPGVPSRFSSSGSGTDFTFTISSLEAEDAATYYCLQSDNLPLTFGQGTKLEIKRTVAAPSVFIFPPEIVLTQSPDFQSVTPKEKVTITCRASQNIGSELHWYQQKPDQSPKLLIKYASHSISGVPSRFSGSGSGTDFTLTINGLEAEDAATYYCHQSDTLPHTFGQGTKVDIKRTVAAPSVFIFPPSDEQLKSGTASVVCLLNNFYPREAKVQWKVDNALQSGNSQESVTEQDSKDSTYSLSSTLTLSKADYEKHKVYACEVTHQGLSSPVTKSFNRGEC |
| 27 | 9.2e-06 | 340000 | 0.064 | 0.00047 | 7.4e+06 | DVD1593 (bispecific antibody, human IgG1, kappa, DVD-Ig, outer AB270, inner AB273, linker set 2; V1 wt hIgG1, V2 kappa; also called DVD1593H; DVD1593L) heavy: not shown light: DTQVTQSPSSLSASVGDRVTITCITSTDIDVDMNWYQQKPGKPPKLLISQGNTLRPGVPSRFSSSGSGTDFTFTISSLQPEDFATYYCLQSDNLPLTFGQGTKLEIKRTVAAPSVFIFPPDIQMTQSPSSLSASVGDRVTITCRASSGIISYIDWFQQKPGKAPKRLIYATFDLASGVPSRFSGSGSGTDYTLTISSLQPEDFATYYCRQVGSYPETFGQGTKLEIKRTVAAPSVFIFPPSDEQLKSGTASVVCLLNNFYPREAKVQWKVDNALQSGNSQESVTEQDSKDSTYSLSSTLTLSKADYEKHKVYACEVTHQGLSSPVTKSFNRGEC |
| 12 | 4.1e-06 | 350000 | 0.075 | 0.00063 | 8.4e+06 | DVD1597 (bispecific antibody, human IgG1, kappa, DVD-Ig, outer AB272, inner AB273, linker set 2; V1 wt hIgG1, V2 kappa; also called DVD1597H; DVD1597L) heavy: not shown light: ETTVTQSPSSLSASVGDRVTITCITSTDIDVDMNWYQQKPGKPPKLLISQGNTLRPGVPSRFSSSGSGTDFTFTISSLQPEDFATYYCLQSDNLPLTFGQGTKLEIKRTVAAPSVFIFPPDIQMTQSPSSLSASVGDRVTITCRASSGIISYIDWFQQKPGKAPKRLIYATFDLASGVPSRFSGSGSGTDYTLTISSLQPEDFATYYCRQVGSYPETFGQGTKLEIKRTVAAPSVFIFPPSDEQLKSGTASVVCLLNNFYPREAKVQWKVDNALQSGNSQESVTEQDSKDSTYSLSSTLTLSKADYEKHKVYACEVTHQGLSSPVTKSFNRGEC |
| < 3.2 | < 1e-06 | 310000 | 0.032 | 3.1e-05 | 960000 | DVD1591 (bispecific antibody, human IgG1, kappa, V1 wt hIgG1, V2 kappa; also called DVD1591H; DVD1591L) heavy: not shown light: DIQMTQSPSSLSASVGDRVTITCRASGNIHNYLTWYQQTPGKAPKLLIYNAKTLADGVPSRFSGSGSGTDYTFTISSLQPEDIATYYCQHFWSIPYTFGQGTKLQITRTVAAPSVFIFPPDIQMTQSPSSLSASVGDRVTITCRASSGIISYIDWFQQKPGKAPKRLIYATFDLASGVPSRFSGSGSGTDYTLTISSLQPEDFATYYCRQVGSYPETFGQGTKLEIKRTVAAPSVFIFPPSDEQLKSGTASVVCLLNNFYPREAKVQWKVDNALQSGNSQESVTEQDSKDSTYSLSSTLTLSKADYEKHKVYACEVTHQGLSSPVTKSFNRGEC |
